B1: RTN1 (parent)
chain: VVAYLALAALSATISFRIYKSVLQ

Variants of: B1
Test: protein stability index of a GFP-peptide fusion (GPS, HEK-293T) (PSI 1-6); higher = more stable
Settings: c terminus: a fixed tail appended
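Further: lentivirally expressed fusions sorted by FACS into six bins by GFP to DsRed ratio, PSI derived from sequencing read proportions per bin multiplied by bin number.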

In order of rising protein stability index:
1. I14N  1.02
2. I18A  1.05
3. A8C  1.26
4. S11C  1.28
5. V2W  1.31
6. T13G  1.32
7. A6Q  1.42
8. A9M  1.46
9. L5E  1.58
10. V1K  1.61
11. S21P  1.65
12. V2I  1.66
13. V2P  1.66
14. V1H  1.68
15. I14L  1.7
16. A8H  1.75
17. L5R  1.78
18. L5Y  1.83
19. V22I  1.83
20. S15I  1.84
21. Q24I  1.85
22. T13C  1.87
23. A3G  1.88
24. S21A  1.89
25. L5K  1.89
26. Y4W  1.9
27. A6I  1.91
28. A8S  1.95
29. A12T  1.95
30. I14K  1.96
31. L10R  1.98
32. L7D  1.99
33. I18L  1.99
34. L5I  2.01
35. A3D  2.01
36. S11G  2.02
37. V1Y  2.03
38. R17K  2.03
39. T13W  2.05
40. Q24T  2.08
41. Y19V  2.12
42. L10E  2.17
43. A8R  2.18
44. V2S  2.18
45. A8K  2.2
46. V1D  2.2
47. R17I  2.21
48. S15C  2.23
49. A9K  2.25
50. L7R  2.26
51. K20N  2.27
52. A8D  2.28
53. F16N  2.28
54. S15G  2.29
55. S11F  2.3
56. Y4K  2.3
57. Y19M  2.3
58. A8L  2.31
59. L10F  2.31
60. V22H  2.31
61. A8T  2.32
62. A6H  2.32
63. S11Y  2.33
64. Y4D  2.35
65. Y4L  2.37
66. S21E  2.38
67. V22T  2.38
68. L7E  2.39
69. Y19P  2.41
70. A9S  2.41
71. S21M  2.42
72. L10K  2.42
73. L5D  2.42
74. T13F  2.43
75. L5T  2.43
76. V1R  2.44
77. S11M  2.45
78. Q24K  2.45
79. A12C  2.45
80. Y19C  2.46
81. L7I  2.46
82. L5A  2.47
83. L7F  2.47
84. L23P  2.48
85. A9D  2.48
86. Y4F  2.5
87. Q24C  2.5
88. Y19I  2.51
89. L7T  2.52
90. A9T  2.52
91. S11W  2.55
92. V1S  2.55
93. S15T  2.56
94. V22S  2.57
95. A3M  2.6
96. T13H  2.61
97. V2A  2.61
98. L23K  2.66
99. A3P  2.66
100. A3Q  2.68
101. L10P  2.69
102. I18G  2.69
103. A3W  2.72
104. I14H  2.72
105. L10H  2.74
106. Y19H  2.75
107. A8Y  2.76
108. I18S  2.78
109. I14A  2.8
110. S11T  2.81
111. R17M  2.83
112. Q24P  2.84
113. A12F  2.85
114. A9E  2.85
115. A9F  2.86
116. A6S  2.88
117. K20D  2.89
118. V2F  2.9
119. S21I  2.91
120. Q24G  2.92
121. V2N  2.97
122. F16Q  3
123. A3E  3.04
124. I18E  3.04
125. L10G  3.08
126. A12H  3.12
127. L7K  3.13
128. A6R  3.2
129. L5F  3.22
130. L10N  3.25
131. A9Y  3.25
132. S11A  3.26
133. V2R  3.31
134. T13E  3.33
135. L10M  3.33
136. A3Y  3.35
137. A6D  3.37
138. S15H  3.38
139. A12V  3.42
140. I18N  3.51
141. L23M  3.52
142. K20G  3.57
143. R17Y  3.59
144. S11D  3.61
145. Y19Q  3.66
146. A3C  3.67
147. I18P  3.69
148. Q24R  3.71
149. A9P  3.77
150. A8W  3.8
151. K20T  3.84
152. V2T  3.88
153. A12L  3.9
154. I18Y  3.91
155. Q24Y  3.94
156. L7A  3.97
157. L7W  4.04
158. Y4G  4.1
159. A8M  4.1
160. Y4I  4.11
161. V22Y  4.13
162. A6G  4.25
163. F16P  4.4
164. Y19E  4.55
165. I18W  4.75
166. V22K  4.89
167. K20E  5.17

From the supplement of paper PMC10567573
